Results as given in patent publication US20130040882A1, “USE OF FIBROBLAST GROWTH FACTOR FRAGMENTS” (NOVARTIS AG, priority 2003, published 2013).
Where “and” joins values, the source holds several entries; their conditions need not be identical. Equal values may be shown once. Read-outs that look alike come from different tables or passages of the source.

Test system: transcript levels in organs
Type: in vivo, cynomolgus monkey

B1: FGF23CTP: unique 75-mer COOH-terminal peptide of FGF-23, SEQ ID NO: 2 (peptide, listed as Homo sapiens)
chain: HTRSAEDDSERDPLNVLKPRARMTPAPASCSQELPSAEDNSPMASDPLGVVRGGRVNTHAGGTGPEGCRPFAKFI
Gene expression level after 2 weeks, mean: EGF-response factor 1 (AV node): 1,819.7
Gene expression level after 2 weeks, mean: Endothelial differentiation receptor 6 (AV node): 306.9
Gene expression level after 2 weeks, mean: FLT receptor tyrosine kinase 1 (AV node): 120.1
Gene expression level after 2 weeks, mean: Insulin-like growth factor II (AV node): 565.275
Gene expression level after 2 weeks, mean: Insulin-like growth factor binding protein 2 (AV node): 880.75
Gene expression level after 2 weeks, mean: Vascular endothelial growth factor-A (VEGFA) (AV node): 363.7
Gene expression level after 2 weeks, mean: Activin A receptor type II (Adrenal): 58.5
Gene expression level after 2 weeks, mean: Bone morphogenetic protein 1 (Adrenal): 210.6
Gene expression level after 2 weeks, mean: Bone morphogenetic protein receptor, type II (Adrenal): 101.25
Gene expression level after 2 weeks, mean: Cdk-inhibitor 1A p21 (Cip1) (Adrenal): 51.75
Gene expression level after 2 weeks, mean: E2F-5 (Adrenal): 39.6
Gene expression level after 2 weeks, mean: FGF receptor-1 (Adrenal): 624.2
Gene expression level after 2 weeks, mean: FLK1 receptor tyrosine kinase (Adrenal): 42.7
Gene expression level after 2 weeks, mean: VE-cadherin (Adrenal): 110.2
Gene expression level after 2 weeks, mean: Colony-stimulating factor-1 (B marrow): 981.3
Gene expression level after 2 weeks, mean: Insulin-like growth factor II (B marrow): 209.5
Gene expression level after 2 weeks, mean: Angiopoietin-1 (Bone Marrow): 123.2
Gene expression level after 2 weeks, mean: Cyclin E2 (Bone Marrow): 257
Gene expression level after 2 weeks, mean: E2F dimerization partner 2 (DP2) (Bone Marrow): 1222
Gene expression level after 2 weeks, mean: Endothelial differentiation receptor 4 (Bone Marrow): 494.8
Gene expression level after 2 weeks, mean: Mdm2 (Bone Marrow): 20
Gene expression level after 2 weeks, mean: TEK tyrosine kinase, angiopoietin receptor (Bone Marrow): 52.7
Gene expression level after 2 weeks, mean: Bone morphogenetic protein 2A (Duodenum): 55.3
Gene expression level after 2 weeks, mean: Cdk-inhibitor p57KIP2 (KIP2) (Duodenum): 138.6
Gene expression level after 2 weeks, mean: Cyclin I (Duodenum): 900.6
Gene expression level after 2 weeks, mean: FLT receptor tyrosine kinase 1 (Duodenum): 70.7
Gene expression level after 2 weeks, mean: Farnesol receptor HRR-1 (Duodenum): 53.1
Gene expression level after 2 weeks, mean: Cyclin-dependent kinase 5 (Hippocampus): 118.7
Gene expression level after 2 weeks, mean: E2F-4 (Hippocampus): 153.4
Gene expression level after 2 weeks, mean: Neuregulin 1 (Hippocampus): 86.075
Gene expression level after 2 weeks, mean: Cyclin D3 (Muscle): 149.2
Gene expression level after 2 weeks, mean: E2F-4 (Muscle): 643.8
Gene expression level after 2 weeks, mean: Endothelial differentiation receptor 6 (Muscle): 181.9
Gene expression level after 2 weeks, mean: Insulin-like growth factor I (Muscle): 107.65
Gene expression level after 2 weeks, mean: Placental growth factor (Muscle): 91.4
Gene expression level after 2 weeks, mean: Retinoid X receptor-gamma (Muscle): 580.9
Gene expression level after 2 weeks, mean: Transforming growth factor β2 (Muscle): 58.3
Gene expression level after 2 weeks, mean: p53 binding protein (Muscle): 138.7
Gene expression level after 2 weeks, mean: Activin A receptor type II (ROHY): 54.9
Gene expression level after 2 weeks, mean: Angiopoietin-1 (ROHY): 162.5
Gene expression level after 2 weeks, mean: Brain-specific angiogenesis inhibitor 1 (MAS5) (ROHY): 225.1
Gene expression level after 2 weeks, mean: Cdk-inhibitor p19 (ROHY): 267.8
Gene expression level after 2 weeks, mean: Colony-stimulating factor-1 (ROHY): 802.5
Gene expression level after 2 weeks, mean: Cyclin A/CDK2-associated p19 (Skp1) (ROHY): 1069.6
Gene expression level after 2 weeks, mean: Cyclin D2 (ROHY): 197.1
Gene expression level after 2 weeks, mean: Cyclin-dependent kinase 4 (ROHY): 197.6
Gene expression level after 2 weeks, mean: E2F-4 (ROHY): 245.9
Gene expression level after 2 weeks, mean: EPHB2v protein-tyrosine kinase (ROHY): 119.1
Gene expression level after 2 weeks, mean: Epidermal growth factor receptor (ROHY): 103.1
Gene expression level after 2 weeks, mean: FGF receptor-1 (ROHY): 932.4
Gene expression level after 2 weeks, mean: Growth differentiation factor 1 (ROHY): 1,410.2
Gene expression level after 2 weeks, mean: RalGDS/AF-6 (inhibitor of Cyclin D1) (ROHY): 300.5
Gene expression level after 2 weeks, mean: Retinoblastoma 1 (ROHY): 467.9
Gene expression level after 2 weeks, mean: Retinoblastoma binding protein 4 (ROHY): 164
Gene expression level after 2 weeks, mean: Retinoid X receptor-beta (ROHY): 106.925
Gene expression level after 2 weeks, mean: S-phase response (cyclin-related) (ROHY): 176
Gene expression level after 2 weeks, mean: Transforming growth factor β3 (ROHY): 88.4
Gene expression level after 2 weeks, mean: Tumour necrosis factor receptor-2 (ROHY): 126.4
Gene expression level after 2 weeks, mean: VEGFB (ROHY): 626.2
Gene expression level after 2 weeks, mean: Vascular endothelial growth factor-A (VEGFA) (ROHY): 326.175
Gene expression level after 2 weeks, mean: p53 binding protein (ROHY): 154.7
Gene expression level after 2 weeks, mean: S-phase response (cyclin-related) (Re atrium): 159.1
Gene expression level after 2 weeks, mean: Activin A receptor type II (Retina): 34.1
Gene expression level after 2 weeks, mean: Brain-specific angiogenesis inhibitor 2 (Retina): 153.2
Gene expression level after 2 weeks, mean: Cyclin D2 (Retina): 132
Gene expression level after 2 weeks, mean: Insulin-like growth factor binding protein 2 (Retina): 807.9
Gene expression level after 2 weeks, mean: Cdk-inhibitor p57KIP2 (KIP2) (Thymus): 247.9
Gene expression level after 2 weeks, mean: FGF receptor-1 (Thymus): 153.2
Gene expression level after 2 weeks, mean: TNFR-related death receptor-3 (cynomolgus monkey, in vivo): 82.4
Gene expression level after 2 weeks, mean: TNFR-related death receptor-6 (cynomolgus monkey, in vivo): 144.65 and 98.8
Gene expression level after 2 weeks, mean: Bone morphogenetic protein 10 (kidney): 138.6
Gene expression level after 2 weeks, mean: Colony-stimulating factor-1 (kidney): 659.75
Gene expression level after 2 weeks, mean: E2F-1 (kidney): 198.5
Gene expression level after 2 weeks, mean: E2F-4 (kidney): 741.6
Gene expression level after 2 weeks, mean: Neuregulin 1 (kidney): 150.725
Gene expression level after 2 weeks, mean: Bone morphogenetic protein 10 (liver): 134.1
Gene expression level after 2 weeks, mean: EPHB2v protein-tyrosine kinase (liver): 82.6
Gene expression level after 2 weeks, mean: Endothelial differentiation receptor 4 (liver): 391.7
Gene expression level after 2 weeks, mean: Farnesol receptor HRR-1 (liver): 383.3
Gene expression level after 2 weeks, mean: Insulin-like growth factor I (liver): 1,055.4
Gene expression level after 2 weeks, mean: Insulin-like growth factor II (liver): 606.9
Gene expression level after 2 weeks, mean: Insulin-like growth factor binding protein 1 (liver): 1,517
Gene expression level after 2 weeks, mean: Insulin-like growth factor binding protein 2 (liver): 3,858.6
Gene expression level after 2 weeks, mean: 14-3-3 protein tau (rostral hypothalamus): 1,748.5
Gene expression level after 2 weeks, mean: Amyloid beta precursor protein (cytoplasmic tail)-binding protein 2 (rostral hypothalamus): 191.3
Gene expression level after 2 weeks, mean: Anion exchanger (rostral hypothalamus): 844.5
Gene expression level after 2 weeks, mean: Axl (rostral hypothalamus): 60.3
Gene expression level after 2 weeks, mean: BAX (rostral hypothalamus): 134.4
Gene expression level after 2 weeks, mean: Bcl-2-binding protein Nip3 (rostral hypothalamus): 794.8
Gene expression level after 2 weeks, mean: Bmi-1 homeobox gene repressor (rostral hypothalamus): 374.7
Gene expression level after 2 weeks, mean: CMP-sialic acid transporter (rostral hypothalamus): 135.075
Gene expression level after 2 weeks, mean: CREB binding protein (rostral hypothalamus): 93
Gene expression level after 2 weeks, mean: Ca2+-ATPase (rostral hypothalamus): 174.4
Gene expression level after 2 weeks, mean: Calcineurin A1 (rostral hypothalamus): 173.975
Gene expression level after 2 weeks, mean: Cholecystokinin A receptor (rostral hypothalamus): 196
Gene expression level after 2 weeks, mean: Connexin 43 (rostral hypothalamus): 184.5
Gene expression level after 2 weeks, mean: Delta 2 catenin (rostral hypothalamus): 118
Gene expression level after 2 weeks, mean: Erk3 (rostral hypothalamus): 409.5
Gene expression level after 2 weeks, mean: FYN (rostral hypothalamus): 958.1
Gene expression level after 2 weeks, mean: GDP dissociation inhibitor beta (rostral hypothalamus): 125.8
Gene expression level after 2 weeks, mean: Glycogen synthase kinase 3 (rostral hypothalamus): 155.5
Gene expression level after 2 weeks, mean: Hypoxia-inducible factor 1 alpha (rostral hypothalamus): 286.5
Gene expression level after 2 weeks, mean: Inhibitor of DNA binding 4 (rostral hypothalamus): 67.6
Gene expression level after 2 weeks, mean: JNK2 (rostral hypothalamus): 79.9
Gene expression level after 2 weeks, mean: Jagged 1 (rostral hypothalamus): 70.3
Gene expression level after 2 weeks, mean: Janus kinase 1 (rostral hypothalamus): 43.3
Gene expression level after 2 weeks, mean: Mnb (Minibrain) (rostral hypothalamus): 446
Gene expression level after 2 weeks, mean: Myelin oligodendrocyte glycoprotein (rostral hypothalamus): 62.7
Gene expression level after 2 weeks, mean: Myosin regulatory light chain (rostral hypothalamus): 177.2
Gene expression level after 2 weeks, mean: NIPSNAP2 (glioblastoma co-amplified) (rostral hypothalamus): 118.7
Gene expression level after 2 weeks, mean: Na,K-ATPase (rostral hypothalamus): 1,453.2
Gene expression level after 2 weeks, mean: Neural cell adhesion molecule 1 (rostral hypothalamus): 988.6
Gene expression level after 2 weeks, mean: Neurofibromin (rostral hypothalamus): 144
Gene expression level after 2 weeks, mean: Oligodendrocyte myelin glycoprotein OMGP (rostral hypothalamus): 773.5
Gene expression level after 2 weeks, mean: PKR Interferon-inducible (rostral hypothalamus): 128.25
Gene expression level after 2 weeks, mean: Phosphodiesterase 4B (rostral hypothalamus): 60.6
Gene expression level after 2 weeks, mean: Phosphoinositide 3-kinase (rostral hypothalamus): 241.5
Gene expression level after 2 weeks, mean: Phosphoinositide-3-kinase, catalytic, delta polypeptide (rostral hypothalamus): 241.5
Gene expression level after 2 weeks, mean: Phospholipase C (rostral hypothalamus): 72.1
Gene expression level after 2 weeks, mean: Pim1 (rostral hypothalamus): 327.5
Gene expression level after 2 weeks, mean: Pinin, Desmosome associated protein (rostral hypothalamus): 119.7
Gene expression level after 2 weeks, mean: RAB1 (rostral hypothalamus): 143.9
Gene expression level after 2 weeks, mean: RAB5 (rostral hypothalamus): 809.8
Gene expression level after 2 weeks, mean: RAB11A (rostral hypothalamus): 344.9
Gene expression level after 2 weeks, mean: RAB11B (rostral hypothalamus): 71.2
Gene expression level after 2 weeks, mean: RAS p21 protein activator (rostral hypothalamus): 163
Gene expression level after 2 weeks, mean: RNP24 (rostral hypothalamus): 558.2
Gene expression level after 2 weeks, mean: Reticulon 4 (rostral hypothalamus): 1,309.2
Gene expression level after 2 weeks, mean: Retinoic acid receptor (rostral hypothalamus): 110
Gene expression level after 2 weeks, mean: Ribosomal protein kinase B (RSK-B) (rostral hypothalamus): 120
Gene expression level after 2 weeks, mean: SFRS protein kinase 2 (rostral hypothalamus): 205.8
Gene expression level after 2 weeks, mean: SNARE (rostral hypothalamus): 55.4
Gene expression level after 2 weeks, mean: STAT1 (rostral hypothalamus): 119.3
Gene expression level after 2 weeks, mean: Sodium/hydrogen exchanger (rostral hypothalamus): 785.5
Gene expression level after 2 weeks, mean: Sphingomyelinase (rostral hypothalamus): 259.5
Gene expression level after 2 weeks, mean: TYRO3 (rostral hypothalamus): 163.1
Gene expression level after 2 weeks, mean: TrkB (rostral hypothalamus): 40.8
Gene expression level after 2 weeks, mean: Tropomyosin 2 (beta) (rostral hypothalamus): 131.6
Gene expression level after 2 weeks, mean: Tropomyosin 4 (rostral hypothalamus): 140.6
Gene expression level after 2 weeks, mean: c-abl (rostral hypothalamus): 119.4
Gene expression level after 2 weeks, mean: c-raf (rostral hypothalamus): 327.5
Gene expression level after 2 weeks, mean: c-yes (rostral hypothalamus): 64.7
Gene expression level after 2 weeks, mean: RalGDS/AF-6 (inhibitor of Cyclin D1) (second line, organ cell empty (below ROHY)): 354.5
